{
  "source": "paper PMC7287924",
  "origin": "cited, not measured here",
  "target": "CD47 (Homo sapiens) (UniProt Q08722)",
  "sequence (Q08722 19-323)": "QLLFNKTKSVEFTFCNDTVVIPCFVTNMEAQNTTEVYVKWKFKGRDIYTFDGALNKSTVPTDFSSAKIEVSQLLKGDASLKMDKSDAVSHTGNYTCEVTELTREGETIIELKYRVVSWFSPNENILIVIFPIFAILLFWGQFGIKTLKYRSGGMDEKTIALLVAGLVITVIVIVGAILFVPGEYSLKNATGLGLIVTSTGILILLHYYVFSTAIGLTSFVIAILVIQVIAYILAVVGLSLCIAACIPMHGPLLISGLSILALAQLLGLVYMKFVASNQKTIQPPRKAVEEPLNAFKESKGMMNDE",
  "data": [
    {"substance": "TSP1 (from UniProt P07996)", "values": [
      {"measurement": "Kd", "value": 0.01, "unit": "nM"}
    ]}
  ]
}
